Measurements as given in the Human Domainome abundance scans (Beltran et al. 2025).
± gives the uncertainty stated by the source.

B1: Triacylglycerol hydrolase DDHD2, residues 389 to 447; numbered along this chain, O94830 (parent)
chain: TLEEDLKKLQLSEFFDIFEKEKVDKEALALCTDRDLQEIGIPLGPRKKILNYFSTRKNS

Variants of: B1
Assay: abundance fitness (aPCA) (normalised: wild type 0, dead -1); higher = more abundant; growth selection in yeast, the domain comes from the species named
Conditions: Homo sapiens

Abundance fitness, by site and new letter:
L2: Q -0.65 ± 0.12, C -0.621 ± 0.089, I -0.017 ± 0.094, P -0.748 ± 0.092, M 0.041 ± 0.085, F -0.269 ± 0.091, E -0.2 ± 0.086, G -0.607 ± 0.071, H -0.818 ± 0.17, Y -0.695 ± 0.13, A -0.609 ± 0.07, D -0.468 ± 0.13, W -0.52 ± 0.082, K -0.426 ± 0.11
T1: R -0.331 ± 0.16, Q -0.506 ± 0.28, I -0.572 ± 0.21, K -0.425 ± 0.24, P -0.999 ± 0.42, E -0.042 ± 0.17, L -0.488 ± 0.18, Y 0.138 ± 0.38, S -0.232 ± 0.12, M -0.475 ± 0.21, N 0.235 ± 0.29, G 0.103 ± 0.13, D 0.014 ± 0.3, V -0.44 ± 0.15
D5: H 0.004 ± 0.11, S -0.016 ± 0.062, K -0.42 ± 0.085, M -0.194 ± 0.076, R -0.568 ± 0.061, I -0.144 ± 0.11, N -0.319 ± 0.1, E 0.123 ± 0.058, A -0.144 ± 0.06, V -0.343 ± 0.06, Y -0.614 ± 0.12, C -0.033 ± 0.1, P -0.904 ± 0.092, T 0.15 ± 0.069, L 0.021 ± 0.052, G -0.536 ± 0.06, Q -0.062 ± 0.068, F 0.032 ± 0.1
E13: T -0.538 ± 0.15, L -0.608 ± 0.11, S -0.252 ± 0.1, M -0.135 ± 0.17, R -0.408 ± 0.098, P -0.432 ± 0.16, A -0.036 ± 0.089, G -0.576 ± 0.1, Y -0.012 ± 0.22, Q -0.215 ± 0.15, W -1.45 ± 0.27, V -0.109 ± 0.088
I17: V 0.128 ± 0.34
K20: N -0.142 ± 0.14, G -0.26 ± 0.12, H -0.212 ± 0.14, Y -0.324 ± 0.14, I -0.321 ± 0.14, A 0.07 ± 0.085, W -0.536 ± 0.11, C -0.538 ± 0.14, M 0.081 ± 0.091, Q -0.317 ± 0.11, S -0.332 ± 0.088, V -0.432 ± 0.088, F -0.524 ± 0.15, P -0.591 ± 0.095, D -0.126 ± 0.14, T -0.104 ± 0.09, L -0.386 ± 0.069
Q10: G -0.131 ± 0.046, N 0.011 ± 0.2, Y -0.191 ± 0.17, D 0.069 ± 0.099, R -0.247 ± 0.052, H -0.138 ± 0.13, F -0.421 ± 0.13, M -0.1 ± 0.074, L -0.52 ± 0.059, T -0.241 ± 0.08, A -0.22 ± 0.05, P -0.863 ± 0.093, E 0.119 ± 0.061, V -0.667 ± 0.055, C -0.101 ± 0.078, I -0.852 ± 0.34
L6: N -0.32 ± 0.37, W -0.45 ± 0.11, K -0.335 ± 0.15, F 0.134 ± 0.23, S -0.767 ± 0.13, M -0.208 ± 0.12, A -1.1 ± 0.11, Q -0.336 ± 0.17, T -0.492 ± 0.11, E -0.765 ± 0.12, Y -0.675 ± 0.43, H -0.754 ± 0.46, P -0.35 ± 0.1, R -0.833 ± 0.11, G -0.698 ± 0.088, D 0.082 ± 0.21, C -0.888 ± 0.27, V -1.12 ± 0.11
E3: K 0.101 ± 0.081, H -0.358 ± 0.11, T -0.705 ± 0.089, I -0.325 ± 0.14, A -0.142 ± 0.063, P -0.817 ± 0.088, M -0.002 ± 0.089, C -0.748 ± 0.1, L -0.145 ± 0.058, W -0.16 ± 0.059, R -0.239 ± 0.049, G -0.591 ± 0.057, Y -0.162 ± 0.1, N -0.354 ± 0.12, V -0.454 ± 0.064, F -0.209 ± 0.1, Q -0.251 ± 0.078
K7: S -0.08 ± 0.077, F -0.038 ± 0.14, A -0.032 ± 0.086, Y -0.006 ± 0.14, E -0.017 ± 0.14, I -0.741 ± 0.38, R 0.108 ± 0.074, Q 0.083 ± 0.12, T -0.196 ± 0.099, M -0.424 ± 0.18, G -0.056 ± 0.089, V -0.43 ± 0.087, N -0.153 ± 0.22, H -0.07 ± 0.16, C -0.294 ± 0.2, L -0.203 ± 0.074, P -0.689 ± 0.11
K22: G 0.455 ± 0.067, F 0.002 ± 0.09, N 0.381 ± 0.097, H 0.076 ± 0.11, C -0.083 ± 0.09, E 0.141 ± 0.093, T -0.16 ± 0.094, A -0.039 ± 0.072, L -0.172 ± 0.064, M -0.103 ± 0.095, S 0.107 ± 0.075, Y 0.089 ± 0.1, I -0.479 ± 0.11, Q -0.247 ± 0.11, D 0.194 ± 0.11, W -0.729 ± 0.13, R -0.193 ± 0.073
E19: R -0.007 ± 0.062, G -0.359 ± 0.072, L 0.054 ± 0.062, I 0.007 ± 0.1, D 0.129 ± 0.1, F -0.082 ± 0.11, M 0.016 ± 0.1, P -0.857 ± 0.12, T 0.023 ± 0.084, N -0.187 ± 0.12, S -0.054 ± 0.067, W -0.463 ± 0.092, C -0.161 ± 0.089, V 0.049 ± 0.065, H -0.024 ± 0.12, Y -0.255 ± 0.12, A -0.225 ± 0.069
F15: K 0.068 ± 0.097, Y -0.114 ± 0.2, I -0.513 ± 0.23, C -0.035 ± 0.17, Q -0.103 ± 0.086, R -0.077 ± 0.063, H -0.084 ± 0.18, L 0.02 ± 0.067, T 0.112 ± 0.07, D -0.465 ± 0.2, A -0.005 ± 0.062, G 0.007 ± 0.071, P -0.537 ± 0.093, E -0.029 ± 0.08, W -0.311 ± 0.098, V -0.097 ± 0.064, M -0.175 ± 0.098, S 0.088 ± 0.076, N 0.05 ± 0.21
V23: Q -0.331 ± 0.1, I 0.417 ± 0.097, P -0.374 ± 0.11, L 0.354 ± 0.067, G -0.426 ± 0.074, N -0.414 ± 0.19, H -0.376 ± 0.15, R -0.311 ± 0.072, M 0.773 ± 0.079, A -0.339 ± 0.083, K 0.101 ± 0.11, F 0.437 ± 0.11, E -0.434 ± 0.091, D -0.177 ± 0.094, C -0.47 ± 0.14
E21: Q 0.137 ± 0.094, Y 0.385 ± 0.12, I 0.245 ± 0.1, N 0.428 ± 0.13, M 0.86 ± 0.084, H 0.155 ± 0.12, L 0.45 ± 0.06, V 0.029 ± 0.075, S 0.453 ± 0.064, F 0.616 ± 0.11, T 0.212 ± 0.084, C 0.257 ± 0.098, W 0.299 ± 0.072, K 0.809 ± 0.093, R 0.508 ± 0.06, P -0.27 ± 0.099, A 0.599 ± 0.07, D -0.275 ± 0.12
D16: P -0.145 ± 0.066, L -0.33 ± 0.06, N -0.025 ± 0.15, W -0.036 ± 0.058, I -0.156 ± 0.15, A 0.026 ± 0.049, H -0.033 ± 0.11, M -0.228 ± 0.091, G -0.088 ± 0.046, Y -0.435 ± 0.2, S -0.057 ± 0.056, F 0.015 ± 0.13, R 0.049 ± 0.047, E 0.075 ± 0.059, T -0.019 ± 0.066, Q 0.106 ± 0.072, K 0.089 ± 0.077, V -0.096 ± 0.05, C -0.084 ± 0.085
F18: D -0.399 ± 0.1, S -0.445 ± 0.081, A -0.134 ± 0.074, Y -0.293 ± 0.12, N -0.197 ± 0.12, T -0.759 ± 0.12, V -0.45 ± 0.083, I -0.16 ± 0.16, Q -0.31 ± 0.15, H -0.533 ± 0.22, M -0.225 ± 0.15, R -0.685 ± 0.085, G -0.644 ± 0.082, E -0.508 ± 0.15, W -0.535 ± 0.11, P -0.035 ± 0.094, K -0.081 ± 0.13
F14: T -0.521 ± 0.13, V -0.505 ± 0.082, A -0.098 ± 0.086, R -0.671 ± 0.075, N -0.193 ± 0.19, Y -0.506 ± 0.28, L 0 ± 0.06, E -0.592 ± 0.11, I -0.365 ± 0.24, P -0.581 ± 0.097, W -0.179 ± 0.076, H -0.599 ± 0.2, M -0.015 ± 0.085, C -0.28 ± 0.11, Q -0.205 ± 0.084, S -0.511 ± 0.082, G -0.775 ± 0.094
E4: I -0.432 ± 0.12, Q -0.103 ± 0.072, N -0.341 ± 0.12, S -0.332 ± 0.061, F -0.264 ± 0.1, W -0.811 ± 0.081, M -0.109 ± 0.071, R -0.493 ± 0.056, H -0.33 ± 0.098, Y -0.777 ± 0.12, L -0.371 ± 0.059, G -0.436 ± 0.074, T -0.589 ± 0.081, P -0.996 ± 0.11, A -0.286 ± 0.067, V -0.629 ± 0.072, D -0.205 ± 0.1
S12: G -0.099 ± 0.058, T 0.017 ± 0.059, Q 0.101 ± 0.075, A -0.023 ± 0.052, E 0.016 ± 0.066, R -0.274 ± 0.06, K -0.032 ± 0.078, M -0.119 ± 0.072, C -0.22 ± 0.093, V -0.099 ± 0.052, Y -0.13 ± 0.088, H 0.052 ± 0.083, I -0.012 ± 0.083, P -0.301 ± 0.066, W -0.137 ± 0.075, D 0.037 ± 0.074, L -0.104 ± 0.054
L11: M -0.125 ± 0.058, I -0.257 ± 0.14, E -0.856 ± 0.088, P -1 ± 0.089, S -0.969 ± 0.072, C -0.462 ± 0.088, V -0.401 ± 0.053, G -1.22 ± 0.095, A -0.882 ± 0.098, H -0.83 ± 0.1, N -1.02 ± 0.21, Y -1.15 ± 0.19, K -1.14 ± 0.15, W -1.12 ± 0.075, T -0.871 ± 0.093, F -1.05 ± 0.17, R -0.996 ± 0.068
